Test [1] has as its target ClpX^ΔN (residues 62–424) T199S mutant (E. coli) (UniProt P0A6H1).
Test [2] deals with ClpX^ΔN (residues 62–424) T199V mutant (E. coli) (UniProt P0A6H1).
Test [3] addresses E. coli ClpX^∆N (residues 62–424) (E. coli) (UniProt P0A6H1).

As for GFP-ssrA, the KM of GFP-ssrA degradation by ClpX^∆N variant/ClpP (Michaelis-Menten fit) in test [1] was 6.3 µM; in test [2] it was 89 µM. The KM of GFP-ssrA degradation by ClpX^∆N/ClpP (Michaelis-Menten fit) in test [3] is 1.3 µM.

The values are drawn from paper PMC7652416.
